This data set deals with T1, CSEP0064/BEC1054 (Blumeria graminis) (UniProt N1JJ94).
T1 sequence: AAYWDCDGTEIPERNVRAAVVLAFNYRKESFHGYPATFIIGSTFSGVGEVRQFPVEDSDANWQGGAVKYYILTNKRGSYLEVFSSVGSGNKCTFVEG
In words: NMR.

On to SRL DNA oligonucleotide, for which the Kd (commonly a measure of binding affinity in units of concentration) was more than 10 µM.

For the origin of these results see paper doi:10.1101/291427.
